Molecular target: TDP-43 (His-TDP-43 wild type) (UniProt Q13148 1-414)
Experiment: EMSA; EMSA: LightShift Chemiluminescent RNA EMSA Kit (Thermo), per manufacturer; buffer, salt, pH and temperature not stated
Conditions: protein: recombinant; tags: His tag; text says C-terminal (pEASY-E2); label: biotin

Chain of TDP-43 (His-TDP-43 wild type) (Q13148 whole entry): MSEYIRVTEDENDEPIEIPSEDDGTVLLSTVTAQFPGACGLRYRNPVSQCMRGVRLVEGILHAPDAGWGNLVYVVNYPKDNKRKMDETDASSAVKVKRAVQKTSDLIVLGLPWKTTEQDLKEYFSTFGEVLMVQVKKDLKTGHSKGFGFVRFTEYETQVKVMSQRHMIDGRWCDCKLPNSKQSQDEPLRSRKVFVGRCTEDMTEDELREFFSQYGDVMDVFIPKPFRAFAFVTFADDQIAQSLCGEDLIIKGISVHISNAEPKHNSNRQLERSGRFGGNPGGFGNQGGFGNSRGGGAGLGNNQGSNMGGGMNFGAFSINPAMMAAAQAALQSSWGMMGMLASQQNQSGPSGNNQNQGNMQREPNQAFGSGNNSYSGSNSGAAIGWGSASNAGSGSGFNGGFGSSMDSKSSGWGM

B1: miR-423-3p (ssRNA)
RNA: AGCUCGGUCUGAGGCCCCUCAGU
binding result: binds

B2: miR-500a-3p (ssRNA)
RNA: AUGCACCUGGGCAAGGAUUCUG
binding result: binds

B3: miR-574-3p (ssRNA)
RNA: CACGCUCAUGCACACACCCACA
binding result: no binding
